Our source for the NLR normalized to the ΔNp73α-E2F4 FL interaction and normalized luminescence ratio (NLR) values is publication PMC10117100.

For one test, the target named is Gluc1-ΔNp73α FL (human) (UniProt O15350). The test is described as follows: split reporter (BiFC, NanoBiT); Gaussia princeps protein complementation assay (GPCA): Gluc1 and Gluc2 N-terminal fusions co-transfected in HEK293T, luminescence of lysates after 48 h as normalized luminescence ratio (NLR); pairs count as interacting if NLR is above 5.
In test [1] the target is Gluc1-ΔN(1 to 433) (human). The test is described as above.

Where only a bound is given, the exact number is not on record here.

Gluc2-E2F4 FL, sequence (Q16254 whole entry): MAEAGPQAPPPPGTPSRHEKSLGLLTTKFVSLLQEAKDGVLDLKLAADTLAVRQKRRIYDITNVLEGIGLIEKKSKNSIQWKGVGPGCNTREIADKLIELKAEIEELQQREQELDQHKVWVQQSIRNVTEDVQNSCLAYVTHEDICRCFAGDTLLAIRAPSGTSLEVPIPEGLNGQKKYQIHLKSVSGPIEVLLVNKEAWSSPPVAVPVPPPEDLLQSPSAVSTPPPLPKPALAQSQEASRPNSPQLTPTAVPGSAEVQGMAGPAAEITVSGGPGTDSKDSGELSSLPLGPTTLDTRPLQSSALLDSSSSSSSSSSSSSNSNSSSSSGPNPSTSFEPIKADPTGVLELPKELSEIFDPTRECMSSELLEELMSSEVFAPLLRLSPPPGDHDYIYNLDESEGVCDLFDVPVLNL
Gluc1-ΔNp73α FL (human), sequence (O15350 other isoform, or with tags, fused parts or gaps mutant): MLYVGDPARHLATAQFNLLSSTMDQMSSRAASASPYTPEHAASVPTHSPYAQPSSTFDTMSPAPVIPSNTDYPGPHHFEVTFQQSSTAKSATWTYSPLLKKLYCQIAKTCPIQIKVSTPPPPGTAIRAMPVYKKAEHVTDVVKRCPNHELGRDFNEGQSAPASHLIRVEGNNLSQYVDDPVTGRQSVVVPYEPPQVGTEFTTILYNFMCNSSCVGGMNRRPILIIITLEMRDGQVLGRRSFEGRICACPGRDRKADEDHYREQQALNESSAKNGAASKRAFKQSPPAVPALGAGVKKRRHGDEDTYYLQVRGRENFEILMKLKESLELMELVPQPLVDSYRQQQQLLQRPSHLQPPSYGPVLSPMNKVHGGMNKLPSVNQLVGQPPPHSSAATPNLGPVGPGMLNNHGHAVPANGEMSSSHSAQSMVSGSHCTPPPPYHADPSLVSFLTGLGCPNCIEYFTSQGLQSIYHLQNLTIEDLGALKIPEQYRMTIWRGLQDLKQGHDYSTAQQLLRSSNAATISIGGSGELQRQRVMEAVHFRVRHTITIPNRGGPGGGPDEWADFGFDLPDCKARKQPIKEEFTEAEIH
Gluc1-ΔN(1 to 433) (human), sequence (O15350 other isoform, or with tags, fused parts or gaps mutant): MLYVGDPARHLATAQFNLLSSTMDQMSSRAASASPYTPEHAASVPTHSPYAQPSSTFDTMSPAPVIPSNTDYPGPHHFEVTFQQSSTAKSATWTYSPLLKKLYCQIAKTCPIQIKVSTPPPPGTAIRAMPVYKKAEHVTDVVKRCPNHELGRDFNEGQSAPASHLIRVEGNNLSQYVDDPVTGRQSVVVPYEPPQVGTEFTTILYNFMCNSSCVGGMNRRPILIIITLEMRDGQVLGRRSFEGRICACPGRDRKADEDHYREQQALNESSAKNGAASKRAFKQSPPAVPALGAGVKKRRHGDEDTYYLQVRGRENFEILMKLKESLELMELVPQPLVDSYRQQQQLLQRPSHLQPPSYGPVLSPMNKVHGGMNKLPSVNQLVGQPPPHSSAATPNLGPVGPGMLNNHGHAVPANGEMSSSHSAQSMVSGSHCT
Gluc2-E2F(1 to 336), sequence (Q16254 1-336): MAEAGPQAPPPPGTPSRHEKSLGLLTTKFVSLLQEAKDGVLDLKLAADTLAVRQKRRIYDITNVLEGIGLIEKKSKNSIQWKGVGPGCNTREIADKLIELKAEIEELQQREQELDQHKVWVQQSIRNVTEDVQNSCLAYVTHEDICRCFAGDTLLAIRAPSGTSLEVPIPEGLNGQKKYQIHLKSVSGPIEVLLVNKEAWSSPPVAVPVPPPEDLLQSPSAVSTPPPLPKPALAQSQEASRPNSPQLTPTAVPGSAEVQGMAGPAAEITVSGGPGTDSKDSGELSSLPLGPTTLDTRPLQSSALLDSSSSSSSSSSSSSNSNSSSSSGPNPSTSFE

On to “Gluc2-E2F(1 to 336) (from UniProt Q16254 1-336) (domain or fragment)”, for which the NLR normalized to the ΔNp73α-E2F4 FL interaction in the test with Gluc1-ΔNp73α FL (human) is 60%.
Regarding “Gluc2-E2F4 FL (from UniProt Q16254 1-413) (natural protein)”, in test [1], the normalized luminescence ratio (NLR) is over 20.
